Reference: the supplement of paper PMC10567573

B1: FAM46C (parent)
chain: FDHLQNRLIATKNPEEIRGGGLLK

Variants of: B1
Assay: protein stability index of a GFP-peptide fusion (GPS, HEK-293T) (PSI 1-6); higher = more stable
Details: c terminus: a fixed tail appended
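Further: lentivirally expressed fusions sorted by FACS into six bins by GFP to DsRed ratio, PSI derived from sequencing read proportions per bin multiplied by bin number.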

Variant | protein stability index
FDHLQNRLIATKQPEEIRGGGLLK | 3.86
FDHLQNRLIATKGPEEIRGGGLLK | 2.86
FDHLQNRLIATKKPEEIRGGGLLK | 4.03
FDHLQNRLIATKSPEEIRGGGLLK | 3.62
FDHLQNRLIATKEPEEIRGGGLLK | 4.1
FDHLQNRLIATKFPEEIRGGGLLK | 2.96
FDHLQNRLIATKMPEEIRGGGLLK | 2.81
FDHLQNRLIATKIPEEIRGGGLLK | 3.47
FDHLQNRLIATKHPEEIRGGGLLK | 2.77
FDHLQNRLIATKWPEEIRGGGLLK | 3.14
FDHLQNRLIATKTPEEIRGGGLLK | 3.64
FDHLQNRLIATKCPEEIRGGGLLK | 3.15
FDHLQNRFIATKNPEEIRGGGLLK | 3.23
FDHLQNRKIATKNPEEIRGGGLLK | 4.16
FDHLQNRNIATKNPEEIRGGGLLK | 4.45
FDHLQNRTIATKNPEEIRGGGLLK | 4.34
FDHLQNRSIATKNPEEIRGGGLLK | 4.62
FDHLQNRCIATKNPEEIRGGGLLK | 4.03
FDHLQNRYIATKNPEEIRGGGLLK | 4.4
FDHLQNRWIATKNPEEIRGGGLLK | 4
FDHLQNRDIATKNPEEIRGGGLLK | 5.05
FDHLQNRQIATKNPEEIRGGGLLK | 5.05
FDHLQNREIATKNPEEIRGGGLLK | 5.03
FDHLQNRPIATKNPEEIRGGGLLK | 4.72

Variant | protein stability index
FDHLQNRAIATKNPEEIRGGGLLK | 4.43
FDHLQNRMIATKNPEEIRGGGLLK | 3.99
FDHLQNRIIATKNPEEIRGGGLLK | 3.66
FDHLQNRRIATKNPEEIRGGGLLK | 3.72
FDHLQNRGIATKNPEEIRGGGLLK | 4.39
FDHLQNRVIATKNPEEIRGGGLLK | 2.97
FDHLQNRLIATKNPERIRGGGLLK | 3.47
FDHLQNRLIATKNPEQIRGGGLLK | 3.58
FDHLQNRLIATKNPEIIRGGGLLK | 3.9
FDHLQNRLIATKNPEPIRGGGLLK | 2.73
FDHLQNRLIATKNPEAIRGGGLLK | 3.43
FDHLQNRLIATKNPELIRGGGLLK | 2.9
FDHLQNRLIATKNPESIRGGGLLK | 3.48
FDHLQNRLIATKNPEDIRGGGLLK | 4.13
FDHLQNRLIATKNPEKIRGGGLLK | 4.02
FDHLQNRLIATKNPEWIRGGGLLK | 2.5
FDHLQNRLIATKNPEGIRGGGLLK | 2.93
FDHLQNRLIATKNPENIRGGGLLK | 3.67
FDHLQNRLIATKNPEHIRGGGLLK | 2.55
FDHLQNRLIATKNPEVIRGGGLLK | 3.61
FDHLQNRLIATKNPEYIRGGGLLK | 3.91
FDHLQNRLIATKNPEFIRGGGLLK | 2.44
FDHLQNRLIATKNPECIRGGGLLK | 2.85
FDHLQNRLIATKNPETIRGGGLLK | 3.79

Variant | protein stability index
FDHLQNRLIATKNPQEIRGGGLLK | 2.53
FDHLQNRLIATKNPWEIRGGGLLK | 2.63
FDHLQNRLIATKNPKEIRGGGLLK | 3.25
FDHLQNRLIATKNPGEIRGGGLLK | 2.99
FDHLQNRLIATKNPHEIRGGGLLK | 3.65
FDHLQNRLIATKNPLEIRGGGLLK | 2.78
FDHLQNRLIATKNPIEIRGGGLLK | 2.93
FDHLQNRLIATKNPREIRGGGLLK | 3.89
FDHLQNRLIATKNPDEIRGGGLLK | 4.07
FDHLQNRLIATKNPMEIRGGGLLK | 4.01
FDHLQNRLIATKNPCEIRGGGLLK | 2.9
FDHLQNRLIATKNPNEIRGGGLLK | 3.95
FDHLQNRLIATKNPPEIRGGGLLK | 3.13
FDHLQNRLIATKNPSEIRGGGLLK | 3.75
FDHLQNRLIATKNPFEIRGGGLLK | 3.06
FDHLQNRLIATKNPYEIRGGGLLK | 1.97
FDHLQNRLIATKNPAEIRGGGLLK | 3.92
FDHLQNRLIATKNPTEIRGGGLLK | 3.29
FDHLQNRLICTKNPEEIRGGGLLK | 3.46
FDHLQNRLIDTKNPEEIRGGGLLK | 4.49
FDHLQNRLIQTKNPEEIRGGGLLK | 2.25
FDHLQNRLIYTKNPEEIRGGGLLK | 1.87
FDHLQNRLIPTKNPEEIRGGGLLK | 4.52
FDHLQNRLIGTKNPEEIRGGGLLK | 3.52

Variant | protein stability index
FDHLQNRLILTKNPEEIRGGGLLK | 2.57
FDHLQNRLIKTKNPEEIRGGGLLK | 3.49
FDHLQNRLITTKNPEEIRGGGLLK | 3.88
FDHLQNRLIITKNPEEIRGGGLLK | 2.71
FDHLQNRLIVTKNPEEIRGGGLLK | 3.38
FDHLQNRLINTKNPEEIRGGGLLK | 4.07
FDHLQNRLIETKNPEEIRGGGLLK | 4
FDHLQNRLIATLNPEEIRGGGLLK | 2.65
FDHLQNRLIATGNPEEIRGGGLLK | 4
FDHLQNRLIATHNPEEIRGGGLLK | 3.1
FDHLQNRLIATENPEEIRGGGLLK | 3.71
FDHLQNRLIATNNPEEIRGGGLLK | 3.82
FDHLQNRLIATPNPEEIRGGGLLK | 4.24
FDHLQNRLIATANPEEIRGGGLLK | 3.68
FDHLQNRLIATMNPEEIRGGGLLK | 3.37
FDHLQNRLIATYNPEEIRGGGLLK | 3.24
FDHLQNRLIATFNPEEIRGGGLLK | 2.59
FDHLQNRLIATCNPEEIRGGGLLK | 2.9
FDHLQNRLIATVNPEEIRGGGLLK | 4.38
FDHLQNRLIATQNPEEIRGGGLLK | 3.61
FDHLQNRLIATTNPEEIRGGGLLK | 3.75
FDHLQNDLIATKNPEEIRGGGLLK | 4.65
FDHLQNALIATKNPEEIRGGGLLK | 4.42
FDHLQNHLIATKNPEEIRGGGLLK | 4.35

Variant | protein stability index
FDHLQNELIATKNPEEIRGGGLLK | 4.55
FDHLQNCLIATKNPEEIRGGGLLK | 3.37
FDHLQNVLIATKNPEEIRGGGLLK | 3.43
FDHLQNKLIATKNPEEIRGGGLLK | 4.19
FDHLQNGLIATKNPEEIRGGGLLK | 3.09
FDHLQNFLIATKNPEEIRGGGLLK | 3.82
FDHLQNILIATKNPEEIRGGGLLK | 3.67
FDHLQNLLIATKNPEEIRGGGLLK | 2.94
FDHLQNYLIATKNPEEIRGGGLLK | 2.99
FDHLQNMLIATKNPEEIRGGGLLK | 3.54
FDHLQNPLIATKNPEEIRGGGLLK | 4.07
FDHLQNQLIATKNPEEIRGGGLLK | 3.64
FDHLQNRLIATKNPEEICGGGLLK | 4.44
FDHLQNRLIATKNPEEIAGGGLLK | 3.75
FDHLQNRLIATKNPEEIIGGGLLK | 3.32
FDHLQNRLIATKNPEEIDGGGLLK | 4.42
FDHLQNRLIATKNPEEIFGGGLLK | 2.98
FDHLQNRLIATKNPEEIEGGGLLK | 4.67
FDHLQNRLIATKNTEEIRGGGLLK | 3.84
FDHLQNRLIATKNMEEIRGGGLLK | 3.66
FDHLQNRLIATKNFEEIRGGGLLK | 2.97
FDHLQNRLIATKNWEEIRGGGLLK | 2.59
FDHLQNRLIATKNYEEIRGGGLLK | 3.2
FDHLQNRLIATKNSEEIRGGGLLK | 3.49

Variant | protein stability index
FDHLQNRLIATKNDEEIRGGGLLK | 3.87
FDHLQNRLIATKNGEEIRGGGLLK | 4.2
FDHLQNRLIATKNLEEIRGGGLLK | 3.87
FDHLQNRLIATKNREEIRGGGLLK | 4
FDHLQNRLIATKNQEEIRGGGLLK | 3.54
FDHLQNRLIATKNCEEIRGGGLLK | 3.74
FDHLQNRLIATKNKEEIRGGGLLK | 3.77
FDHLQNRLIATKNAEEIRGGGLLK | 3.69
FDHLQNRLIATKNVEEIRGGGLLK | 3.25
FDHLQNRLIATKNIEEIRGGGLLK | 2.39
FDHLQNRLIATKNNEEIRGGGLLK | 4.12
FDHLQNRLIAEKNPEEIRGGGLLK | 4.71
FDHLQNRLIAFKNPEEIRGGGLLK | 3.73
FDHLQNRLIAYKNPEEIRGGGLLK | 3.31
FDHLQNRLIAMKNPEEIRGGGLLK | 3.7
FDHLQNRLIAAKNPEEIRGGGLLK | 3.55
FDHLQNRLIARKNPEEIRGGGLLK | 3.97
FDHLQNRLIAVKNPEEIRGGGLLK | 3.74
FDHLQNRLIADKNPEEIRGGGLLK | 3.75
FDHLQNRLIACKNPEEIRGGGLLK | 3.41
FDHLQNRLIAPKNPEEIRGGGLLK | 3.63
FDHLQNRLIAQKNPEEIRGGGLLK | 4.2
FDHLQNRLIALKNPEEIRGGGLLK | 4.29
FDHLQNRLIASKNPEEIRGGGLLK | 3.56

Variant | protein stability index
FDHLQNRLIANKNPEEIRGGGLLK | 4.01
FDHLQNRLIAWKNPEEIRGGGLLK | 3.98
FDHLQNRLQATKNPEEIRGGGLLK | 4.57
FDHLQNRLMATKNPEEIRGGGLLK | 3.58
FDHLQNRLRATKNPEEIRGGGLLK | 4.05
FDHLQNRLWATKNPEEIRGGGLLK | 2.16
FDHLQNRLGATKNPEEIRGGGLLK | 4.3
FDHLQNRLSATKNPEEIRGGGLLK | 3.98
FDHLQNRLHATKNPEEIRGGGLLK | 3.05
FDHLQNRLKATKNPEEIRGGGLLK | 4.27
FDHLQNRLLATKNPEEIRGGGLLK | 4.44
FDHLQNRLAATKNPEEIRGGGLLK | 4.86
FDHLQNRLNATKNPEEIRGGGLLK | 4.06
FDHLQNRLYATKNPEEIRGGGLLK | 3.56
FDHLQNRLCATKNPEEIRGGGLLK | 4.43
FDHLQNRLFATKNPEEIRGGGLLK | 3.53
FDHLQNRLTATKNPEEIRGGGLLK | 4.4
FDHLQNRLDATKNPEEIRGGGLLK | 3.5
FDHLQNRLIATKNPEEERGGGLLK | 4.26
FDHLQNRLIATKNPEEFRGGGLLK | 3.46
FDHLQNRLIATKNPEEQRGGGLLK | 4.86
FDHLQNRLIATKNPEEKRGGGLLK | 3.39
FDHLQNRLIATKNPEESRGGGLLK | 4.35
FDHLQNRLIATKNPEEDRGGGLLK | 4.52

Variant | protein stability index
FDHLQNRLIATKNPEEMRGGGLLK | 3.82
FDHLQNRLIATKNPEERRGGGLLK | 3.86
FDHLQNRLIATKNPEECRGGGLLK | 4.18
FDHLQNRLIATKNPEEHRGGGLLK | 4.28
FDHLQNRLIATKNPEEPRGGGLLK | 3.55
FDHLQNRLIATKNPEETRGGGLLK | 4.01
FDHLQNRLIATKNPEEYRGGGLLK | 3.58
FDHLQNRLIATKNPEENRGGGLLK | 4.27
FDHLQNRLIATKNPEEWRGGGLLK | 3.44
FDHLQNRLIATKNPEEARGGGLLK | 4.4
FDHLQVRLIATKNPEEIRGGGLLK | 2.55
FDHLQSRLIATKNPEEIRGGGLLK | 3.31
FDHLQMRLIATKNPEEIRGGGLLK | 3.32
FDHLQGRLIATKNPEEIRGGGLLK | 3.03
FDHLQTRLIATKNPEEIRGGGLLK | 1.91
FDHLQPRLIATKNPEEIRGGGLLK | 4.46
FDHLQYRLIATKNPEEIRGGGLLK | 2.95
FDHLQQRLIATKNPEEIRGGGLLK | 4.1
FDHLQIRLIATKNPEEIRGGGLLK | 2.56
FDHLQKRLIATKNPEEIRGGGLLK | 3.81
